The target in data set [1] is 14-3-3-FC complex (tobacco 14-3-3c saturated with fusicoccin) (Nicotiana tabacum (tobacco)) (UniProt P93343).
The target of data set [2] is Tobacco 14-3-3c (Gene bank AAC49892, amino acids 1-260 with an N-terminal His-tag) (Nicotiana tabacum (tobacco)) (UniProt P93343). Description: ITC; peptide into unliganded 14-3-3c. (Isothermal titration calorimetry measures the heat released or taken up as one component is titrated into another.)
Data set [3] addresses 14-3-3-FC complex (tobacco 14-3-3c saturated with fusicoccin) (Nicotiana tabacum (tobacco)) (UniProt P93343). Description: ITC; peptide into the 14-3-3-FC complex.
Data set [4] shares this target. Description: isothermal titration calorimetry, […].
Data set [5] has as its target Tobacco 14-3-3c (Gene bank AAC49892, amino acids 1-260 with an N-terminal His-tag) (Nicotiana tabacum (tobacco)) (UniProt P93343). In words: isothermal titration calorimetry, peptide titrated into 14-3-3c alone, 35 °C.
For data set [6] the target is unchanged. Description: ITC; phosphopeptide (0.5 mM) titrated into 14-3-3c (0.05 mM), 25 mM HEPES pH 6.5, 35 °C, single-site fit; peptide to unliganded 14-3-3c, no fusicoccin; ITC, pH 6.5, 35 C.
Data set [7] concerns the molecule itself. In words: X-ray crystal structure (homodimer).
Experimental: Tobacco 14-3-3c (Gene bank AAC49892, amino acids 1-260 with an N-terminal His-tag) was expressed recombinantly in E.coli and purified via standard procedures. Fusicoccin was purchased from Sigma. Phosphopeptides were synthesized by Biosyntan (Berlin). […] They were soaked with ligands for 4 hours (fusicoccin) or 20 minutes (peptide) in precipitant solution supplemented to 30% PEG 400 and cryoprotectant (precipitant solution supplemented to 35% PEG 400, 8% Isopropanol) prior to freezing in liquid N₂.

Two molecules from patent US20070287629A1 (MAX PLANCK GESELLSCHAFT ZUR FOERDERUNG DER WISSENSCHAFTEN E …, published 2007) can be followed below.

In turn, “phosphopeptide Gln-Ser-Tyr-pThr-Val (QSYpTV), C-terminal end of PMA2, a H+-ATPase isoform from N. plumbaginifolia” yielded a fold increase of binding affinity by fusicoccin in data set [1] of 93 fold. The -TΔS in data set [2] worked out at 1.7 kcal/mol; in data set [3], 0.4 kcal/mol. Moreover, the values for the ΔH in data set [2] and in data set [3] were -10 kcal/mol and -11.8 kcal/mol, respectively. In addition, the Kd came out at 27 nM in data set [4] and 2500 nM in data set [6]. Also, the ΔG in data set [4] was -11.4 kcal/mol; in data set [5], -8.3 kcal/mol.

B1: Tobacco 14-3-3c (Gene bank AAC49892, amino acids 1-260 with an N-terminal His-tag) (other)
chain: MAVAPTAREENVYMAKLAEQAERYEEMVEFMEKVSNSLGSEELTVEERNLLSVAYKNVIGARRASWRIISSIEQKEESRGNEEHVNSIREYRSKIENELSKICDGILKLLDAKLIPSAASGDSKVFYLKMKGDYHRYLAEFKTGAERKEAAESTLTAYKAAQDIATTELAPTHPIRLGLALNFSVFYYEILNSPDRACNLAKQAFDEAIAELDTLGEESYKDSTLIMQLLRDNLTLWTSDMQDDGADEIKEDPKPDEAKN
notes: Expressed in E. coli; one monomer in the asymmetric unit; also called plant 14-3-3c; Nicotiana tabacum 14-3-3 isoform c; not shown: N-terminal His-tag
B1: the binding result in data set [7] was “binds”.

As a reminder, the Kd is the constant that tells how readily two partners part at equilibrium. A high value points to lower affinity.
